Kd data for one molecule are collected here from publication PMC5125287 (Annals of Medicine, 2016).

In this experiment the target is Recombinant carrier-free human βNGF (human, UniProt P01138 122-241). Kind of experiment: SPR; BIACORE; PDPN/Fc amine-coupled to a CM5 chip (6000 to 8000 RU); analyte injected at 5 μl/min; NGF at 1 μM; 20 °C; HBS-P (0.01 M Hepes pH 7.4/0.15 M NaCl/0.005% Surfactant P20); reference channel subtracted; regeneration with 1% heparin in PBS; 1:1 Langmuir fit, KD estimated by the steady-state affinity model. The conditions noted are these: both partners purified.
Sequence of Recombinant carrier-free human βNGF (P01138 122-241): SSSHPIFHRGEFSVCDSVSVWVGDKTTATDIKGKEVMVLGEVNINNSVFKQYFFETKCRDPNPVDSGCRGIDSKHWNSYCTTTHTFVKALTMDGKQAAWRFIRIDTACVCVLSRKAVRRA

B1: Human podoplanin extracellular domain/Fc chimera (Fc fusion, UniProt Q86YL7 23-131, looked up)
chain: ASTGQPEDDTETTGLEGGVAMPGAEDDVVTPGTSEDRYKSGLTTLVATSVNSVTGIRIEDLPTSESTVHAQEQSPSATASNVATSHSTEKVDGDTQTTVEKDGLSTVTL
What is called Kd is the free concentration of one partner at which half of the binding sites on the other are occupied at equilibrium, for simple one-to-one binding. Turning to B1, the dissociation constant (Kd) is about 100 nM.
